Tests used:
Test in all cases: flow cytometry, staining of IEs
[1] = biological target: erythrocytes infected with P. falciparum field isolate 9106
[2] = biological target: erythrocytes infected with P. falciparum field isolate 11014
[3] = biological target: erythrocytes infected with P. falciparum field isolate 9605
[4] = biological target: erythrocytes infected with P. falciparum field isolate 10975
[5] = biological target: erythrocytes infected with P. falciparum field isolate 10936
[6] = biological target: erythrocytes infected with P. falciparum field isolate 11019
[7] = biological target: erythrocytes infected with P. falciparum field isolate 9215
[8] = biological target: erythrocytes infected with P. falciparum field isolate 9775

Row | Binder | % parasite recognition [1] | % parasite recognition [2] | % parasite recognition [3] | % parasite recognition [4] | % parasite recognition [5] | % parasite recognition [6] | % parasite recognition [7] | % parasite recognition [8]
1 | MGC1 (antibody) VH: EVQLVESGGGLVQPGGSLRLSCVASGFNFRKSWMGWVRQAPGKGLEWVANIREDGSESFYADSVKGRFTVSRDNAKKSLYLHINSLRAEDTAVYYCARDRFCNDDEIHRHGQEDLPRPSISAAEGTVIPLGSHVTFVCRGPVGVQTFRLEKDSRSIYNDTENVSQPSPSESEARFRIDSVSEGNAGLYRCVYYKAPKWSAQSDYLELLVKGQEVTWALFTSCGGDGEEPDYDMDVRGKGTTVTVSS VL: DIVMTQSPDSLAVSLGERATINCKSSQSVLYRSKNKNYLAWFQQKPGQPPKVLIYSTSTRASGVPDRFTGSGSGTDFTLTISSLQAEDVAVYYCLQYYITPYTFGQGTKLEIK | 6.7% | 3.4% | 19.5% | 1.4% | 2% | 32.7% | 14.9% | 5.7%
2 | MGC2 (antibody) VH: EVQLVESGGGLVQPGGSLRLSCAASGFTFSNFWMGWVRQTPGKGLEWVANIKEDGSEKYYVDSVRGRFTISRDSAKNSLYLQMNSLRAEDTAVYYCVRERFCSNHIHKEEHLPRPSISPEPGTVITLGSHVTFVCRGPVGVQTFRLEKDSRSTYNDTEDVSQPSPSESEARFRIDSVSEGYAGLYRCLYYKPPKWSEQSDYLELLVKGDDVTWALYPSCGGDGEASDYNMDVWGKGTTVTVSS VL: DIQMTQSPSTLSASVGDRVTISCRASQRFSGWLAWYQQKPGKAPNLLIYKASPLAGGGPSRFSGSGSGTDFTLTISSLQPDDSATYYCQHYSNYSYTFGQGTKLEIR | 5.6% | 1.5% | 22.4% | 2.6% | 2.8% | 11.9% | 28.8% | 2.9%
3 | MGC35 (antibody) VH: EVQLVESGGGLVQPGGSLRLSCEASGFNSRSYWMTWVRQAPGKGLEWVASINQDATEKNYVDSVKGRFTISRDTAKNSLYLQMNSLRAEDTAVYYCARDRFCGGESHLHGQEDLPRPSISAEPGSVIPLGSLVTFVCRGPVGVHTFRLERGWTYNDTEDVSQAGPSESEARFRMDSVREGNAGLYRCIYYKPPKWSEQSAYLELRVKGGDVTWALLTYCGGDGEESDYPMDVWGKGTTVTVSS VL: QTVVTQEPSLTVSPGGTVTLTCASSTGPVTSAYYPNWFQQKPGQAPRSLIYNINKKHSWTPDRFSGSLLGGKAALTLSGVQPEDEADYYCLLSCGGAQPWVFGGGTKLTVQ | 6.5% | 3.6% | 15.9% | 7.4% | 2.5% | 3.2% | 19.5% | 7.2%
4 | MGC36 (antibody) VH: EVVLVESGGGLVQPGGSLRLSCEASGFNSRSYWMTWVRQAPGKGLEWVASINQDGTEKNYVDSVKGRFTISRDSAKNSLYLQMSSLRADDTAVYYCARDRFCGGESHLHGEEDLPRPSISAEPDTVIPLGSHVTFVCRGPVGVHTFRLERGWRYNDTEDVSQAGPSESEARFRIDSVREGNAGLYRCIYYIAPKWSEQSDYLELRVKGGDVTWALLTYCGGDGEESDYPMDVWGKGTTVTVSS VL: QTVVTQEPSLTVSPGGTVTLTCASSTGPVTSAYYPNWFQQKPGQAPRSLIYSINKKHSWTPARFSGSLLGGKAALTLSGVQPEDEADYYCLLSCGGAQPWVFGGGTKLTVQ | 6.9% | 4.6% | 17.9% | 8.6% | 2.7% | 17.9% | 12.4% | 6.2%
5 | MGC37 (antibody) VH: EVQLVESGGDLVQPGGSLRLSCAASGFTFRNYWMSWVRQTPGKGLEWVANIRQDGSEKYYVDSVKGRFTISRDNAKNLLYLQMNSLRAEDTAVYYCVRDKFCSDENHMHVADDLPRPSISPEPGTVIPLGSHVTFVCRGPVGVQTFRLEKDRRSTYNDTEDVSQPSPSESEARFRIDSVTEGNAGLYRCVYYKPPKWSDQSDFLELLVKGEDVTWALFPHCGADGEDSDYYMDVWGKGTTVTVSS VL: DIQLTQSPSTLSASVGDRVTISCRASQRLSRSLAWYQQRPRKAPNLLIYKASPLEIGGPSRFTGSGSGTEFTLTISSLQPDDSATYYCQQYSNYSYSFGQGTKLEIR | 7.2% | 5.8% | 22.2% | 7.5% | 4.1% | 51.8% | 9.9% | 4%
6 | MGD23 (antibody) VH: QVQLQESGPGLVKPSGTLSLTCSVSGGSISSNKWWSWVRQSPGKGLEWIGEVYQTGITNYNPSLKGRVTMSVDKSKNQFSLRLTSVTAADTAVYYCATISQLRPQGDTEDLPRPSLSAEPGTVIPLGSHVTFVCRGPAGVETFRLERESRFTYNDTEDVSQASPSESEARFRIDSVSEGNAGPYRCLYYKARKWSDQSDYLELLVKGADVTWALPQSQLAPRACPQGELRISTDVFSMNVWGNGTTVTVSS VL: AVRVTQSPTSLSASTGDRVTITCRTSQYVGNYLDWYQQKPGKAPKLLIHGVSTLQNGVPSRFSGSASGTDFTLNITCLQSEDSATYYCQQYYTSPPDFGQGTRLEIK | 5.7% | 6.3% | 14.7% | 3.4% | 4.3% | 7.8% | 11.4% | 7.3%
7 | MGD30 (antibody) VH: QVQLQESGPGLVKPSETLSLSCAVTGGSITSSKWWTWVRQGPDKGLEWIGKIYHNGTTNYNPSLKSRVAMSVDKSRNQFSLRLTSVTAADTALYYCATASPFKSHHRTTEKLPRPSISAEPGTVIPLGSRVTFVCRGPVGVQTFRLERETSFTYNDTEDVSQVSPSESEARFRIDSVSEGYAGPYRCVYYKAPKWSEQSDYLDLLVKGEDVTWALTQPQLDPRACPQGDLRMSTDIYCMDVWGKGTTVTVSS VL: AIRLTQSPSSLSASIGDRVTITCRASQDISTFLAWYQQESGKAPRLLIFAASTLQTGVPSRFSGSGSGTDFTLTISGLQSEDFATYYCQQYYCFPPDFGQGTRLDIK | 4.2% | 3.4% | 7.4% | 6.5% | 2.6% | 4.4% | 9% | 5.6%
8 | MGD33 (antibody) VH: HVQLQESGPGLVKPSETLSLSCAVTGGSITSSKWWTWVRQGPDKGLEWIGKIYHNGTTNYNPSLKSRVAMSVDKSKNQFSLRLTSVTAADTAVYYCATASPFKSHHRTTEKLPRPSISAEPGTVIPLGSRVTFVCRGPVGVQTFRLERETRSTYNDTEDVSQVSPSESEARFRIDSVSEGYAGPYRCVYYKAPKWSEQSDYLDLLVKGEDVTWALTQPQLDPRACPQGDLRMSTDIYCMDVWGKGTTVTVSS VL: AIRLTQSPSSLSASIGDRVTITCRASQDISTYLAWYQQESGKAPRLLIFAASSLQTGVPSRFSGSGSGTDFTLTISGLQSEDFATYYCQQYYCFPPDFGQGTRLDIK | 4.3% | 7% | 12.3% | 14.2% | 6.1% | 9.6% | 15.5% | 8.5%
9 | MGD34 (antibody) VH: EVQLVESGPGLMKTSGTLSLTCAVSGDYVNTNRRWSWVRQAPGKGLEWIGEVHQSGRTNYNPSLKSRVTISVDKSKNQFSLKVDSVTAADTAVYYCARASPLKSQRDTEDLPRPSISAEPGTVIPLGSHVTFVCRGPVGVQTFRLERERNYLYSDTEDVSQTSPSESEARFRIDSVNAGNAGLFRCIYYKSRKWSEQSDYLELVVKGEDVTWALSQSQVDPRACPQGELPISTDIYYVDVWGNGTTFTVSS VL: AIRMTQSPSSLSASPGDKVSITCRASQHINDSLAWFQQRPGKAPKLLIYGASNLHSGVPSRFSGTGSGTDFTLTITGLQSEDFATYFCQQCNCFPPDFGQGTRLEIK | 5% | 13% | 28.4% | 11.2% | 8.1% | 46.6% | 35.7% | 16%
10 | MGD35 (antibody) VH: QVQLQESGPGLVKPSGTLSLTCAVSGASISSINWWSWVRQTPEKGLEWIGQIHHNGSTNYNPSLKSRVAISVDKSKNQFSLKLTSFTAADTAVYYCATASSLKSQRDTNLPRPSLSAEPGTVIPLGSPVTFVCRGPVGVHTFRLERAGRSTYNDTEDVSHPSPSESEARFRIDSVSEGNAGPYRCVYYKSSKWSEESYCLDLLVKTEDVTWARPQPQLDPRACPQGDLRISTDFYYMDVWGKGTTVTVSS VL: AIRMTQSPSSLSASTGDRVTITCRTSQAIGTYLAWYQQNPGKAPNLLIYNASTLQSGVPSRFSASGSGTDFTLTISGLQSDDFVTYFCQHYYNYPPAFGQGTRLEIQ | 6.1% | – | 3.6% | – | – | 6.3% | – | –
11 | MGD39 (antibody) VH: QVRLQESGPGLVKPSGTLSLTCTVSGGSISAYRWWSWVRQAPGKGLEWIGQVYNDGNTNYNPSLKGRVAMSVDKSKNRFSLRLASVTAADTAVYYCATISPLRPQSDTDDLPRPSISAEPGTVIPLGSHVTFVCRGPIGVQTFRLERERRSLYSDTEDVSQVSPFASEARFRIDSVSEGNAGPYRCIYYKDRKWSDQSDYLELLVKGEDVTWALPQSQLAPRACPQEELNISTDIFSMNVWGKGTTVTVSS VL: AIRMTQSPASLSASIGDRVTITCRTSHDVGNYLDWYQQKPGKAPKLLIHGASTLQTGVPSRFSGSGAGTDFTLNITCLQSGDFAMYYCQQYYSSPPGFGQGTRLEIK | 13.7% | 11.5% | 31.7% | 14.1% | 10.5% | 43% | 37.4% | 15%

Reference: US20180186897A1 (INSTITUTE FOR RESEARCH IN BIOMEDICINE, published 2018)
